In US20220372155A1 (LYVGEN BIOPHARMA, published 2022):

B1: Ly610 (bispecific antibody, human IgG1, kappa)
heavy: EVQLQQSGPELVKPGASVKMSCKASGYTFTSYVMHWVKQKPGQGLEWIGYINPYNDGTECTDKFKGKATLTSDKSSSTAYMELSSLTSEDSAVYYCASIYYGYDGTYFGVWGAGTSVTVSSASTKGPSVFPLAPSSKSTSGGTAALGCLVKDYFPEPVTVSWNSGALTSGVHTFPAVLQSSGLYSLSSVVTVPSSSLGTQTYICNVNHKPSNTKVDKKVEPKSCDKTHTCPPCPAPELLGPSVFLFPPKPKDTLMISRTPEVTCVVVDVSHEDPEVKFNWYVDGVEVHNAKTKPREEQYNSTYRVVSVLTVLHQDWLNGKEYKCKVSNKALPAPIEKTISKAKGQPREPQVYTLPPSREEMTKNQVSLTCLVKGFYPSDIAVEWESNGQPENNYKTTPPVLDSDGSFFLYSKLTVDKSRWQQGNVFSCSVMHEALHNHYTQKSLSLSPGGGGGSGGGGSGGGGSGGGGSDIQMTQSPSSLSASVGDRVTITCKASQNIYIYLNWYQQKPGKAPKLLIYNTNNLQTGVPSRFSGSGSGTDFTLTISSLQPEDFATYYCLQHSSRRTFGGGTKVEIKGGGGSGGGGSGGGGSGGGGSQVQLVESGGGLVQPGGSLKLSCATSGFNFNDYFMNWVRQASGKGLEWVGQIRNKNYNYATYYTESLEGRVTISRDDSKNTAYLQMNSLKTEDTAVYYCTSYYYDGFADYFDYWGQGTTVTVSS
light: QIVLSQSPAILSTSPGEKVTMTCRASSSVSYMHWYQQKPGSSPKPWIYATSNLASGVPARFSGSRSGTSYSLTISRVEAEDAATYYCQQWSSNTLTFGGGTKLELKRTVAAPSVFIFPPSDEQLKSGTASVVCLLNNFYPREAKVQWKVDNALQSGNSQESVTEQDSKDSTYSLSSTLTLSKADYEKHKVYACEVTHQGLSSPVTKSFNRGEC
notes: Ly383 HC (IgG1 mutated Fc)-TM740 scFv VL-VH + Ly383 LC
B2: Ly611 (bispecific antibody, human IgG1, kappa)
heavy: EVQLQQSGPELVKPGASVKMSCKASGYTFTSYVMHWVKQKPGQGLEWIGYINPYNDGTECTDKFKGKATLTSDKSSSTAYMELSSLTSEDSAVYYCASIYYGYDGTYFGVWGAGTSVTVSSASTKGPSVFPLAPSSKSTSGGTAALGCLVKDYFPEPVTVSWNSGALTSGVHTFPAVLQSSGLYSLSSVVTVPSSSLGTQTYICNVNHKPSNTKVDKKVEPKSCDKTHTCPPCPAPELLGPSVFLFPPKPKDTLMISRTPEVTCVVVDVSHEDPEVKFNWYVDGVEVHNAKTKPREEQYNSTYRVVSVLTVLHQDWLNGKEYKCKVSNKALPAPIEKTISKAKGQPREPQVYTLPPSREEMTKNQVSLTCLVKGFYPSDIAVEWESNGQPENNYKTTPPVLDSDGSFFLYSKLTVDKSRWQQGNVFSCSVMHEALHNHYTQKSLSLSPGGGGGSGGGGSGGGGSGGGGSQVQLVESGGGLVQPGGSLKLSCATSGFNFNDYFMNWVRQASGKGLEWVGQIRNKNYNYATYYTESLEGRVTISRDDSKNTAYLQMNSLKTEDTAVYYCTSYYYDGFADYFDYWGQGTTVTVSSGGGGSGGGGSGGGGSGGGGSDIQMTQSPSSLSASVGDRVTITCKASQNIYIYLNWYQQKPGKAPKLLIYNTNNLQTGVPSRFSGSGSGTDFTLTISSLQPEDFATYYCLQHSSRRTFGGGTKVEIK
light: B1 light
notes: Ly383 HC (IgG1 mutated Fc)-TM740 scFv VH-VL + Ly383 LC
B3: Ly612 (bispecific antibody, human IgG1, kappa)
heavy: EVQLQQSGPELVKPGASVKMSCKASGYTFTSYVMHWVKQKPGQGLEWIGYINPYNDGTECTDKFKGKATLTSDKSSSTAYMELSSLTSEDSAVYYCASIYYGYDGTYFGVWGAGTSVTVSSASTKGPSVFPLAPSSKSTSGGTAALGCLVKDYFPEPVTVSWNSGALTSGVHTFPAVLQSSGLYSLSSVVTVPSSSLGTQTYICNVNHKPSNTKVDKKVEPKSCDKTHTCPPCPAPELLGPSVFLFPPKPKDTLMISRTPEVTCVVVDVSHEDPEVKFNWYVDGVEVHNAKTKPREEQYNSTYRVVSVLTVLHQDWLNGKEYKCKVSNKALPAPIEKTISKAKGQPREPQVYTLPPSREEMTKNQVSLTCLVKGFYPSDIAVEWESNGQPENNYKTTPPVLDSDGSFFLYSKLTVDKSRWQQGNVFSCSVMHEALHNHYTQKSLSLSPGGGGGSGGGGSGGGGSGGGGSDIQMTQSPSSLSASVGDRVTITCLASEDISNDLAWYQQKPGKAPKLLIYFVDRLLDGVPSRFSGSGSGTDFTLTISSLQPEDFATYYCQQSYKYPPTFGQGTKLEIKGGGGSGGGGSGGGGSGGGGSEVQLVESGGGLVQPGGSLRLSCAASGFTFTNYGLHWVRQAPGKGLEWVSSISPSGGVTYYRDSVKGRFTISRDNSKNTLYLQMNSLRAEDTAVYYCAKPFLGWGGANWIAHWGQGTLVTVSS
light: B1 light
notes: Ly383 HC (IgG1 mutated Fc)-TM559 scFv VL-VH + Ly383 LC
B4: Ly613 (bispecific antibody, human IgG1, kappa)
heavy: EVQLQQSGPELVKPGASVKMSCKASGYTFTSYVMHWVKQKPGQGLEWIGYINPYNDGTECTDKFKGKATLTSDKSSSTAYMELSSLTSEDSAVYYCASIYYGYDGTYFGVWGAGTSVTVSSASTKGPSVFPLAPSSKSTSGGTAALGCLVKDYFPEPVTVSWNSGALTSGVHTFPAVLQSSGLYSLSSVVTVPSSSLGTQTYICNVNHKPSNTKVDKKVEPKSCDKTHTCPPCPAPELLGPSVFLFPPKPKDTLMISRTPEVTCVVVDVSHEDPEVKFNWYVDGVEVHNAKTKPREEQYNSTYRVVSVLTVLHQDWLNGKEYKCKVSNKALPAPIEKTISKAKGQPREPQVYTLPPSREEMTKNQVSLTCLVKGFYPSDIAVEWESNGQPENNYKTTPPVLDSDGSFFLYSKLTVDKSRWQQGNVFSCSVMHEALHNHYTQKSLSLSPGGGGGSGGGGSGGGGSGGGGSEVQLVESGGGLVQPGGSLRLSCAASGFTFTNYGLHWVRQAPGKGLEWVSSISPSGGVTYYRDSVKGRFTISRDNSKNTLYLQMNSLRAEDTAVYYCAKPFLGWGGANWIAHWGQGTLVTVSSGGGGSGGGGSGGGGSGGGGSDIQMTQSPSSLSASVGDRVTITCLASEDISNDLAWYQQKPGKAPKLLIYFVDRLLDGVPSRFSGSGSGTDFTLTISSLQPEDFATYYCQQSYKYPPTFGQGTKLEIK
light: B1 light
notes: Ly383 HC (IgG1 mutated Fc)-TM559 scFv VH-VL + Ly383 LC
B5: Ly614 (bispecific antibody, human IgG1, kappa)
heavy: QVQLQQPGAELVKPGASVKLSCKASGYTFTSYWMHWVKQRPGQGLEWIGMIHPNSGGTNYNEKFKGKGTLTVDKSSSTAYMQLSSLTSDDSAVYYCVTSQATWFAYWGQGTLVTVSAASTKGPSVFPLAPSSKSTSGGTAALGCLVKDYFPEPVTVSWNSGALTSGVHTFPAVLQSSGLYSLSSVVTVPSSSLGTQTYICNVNHKPSNTKVDKKVEPKSCDKTHTCPPCPAPELLGPSVFLFPPKPKDTLMISRTPEVTCVVVDVSHEDPEVKFNWYVDGVEVHNAKTKPREEQYNSTYRVVSVLTVLHQDWLNGKEYKCKVSNKALPAPIEKTISKAKGQPREPQVYTLPPSREEMTKNQVSLTCLVKGFYPSDIAVEWESNGQPENNYKTTPPVLDSDGSFFLYSKLTVDKSRWQQGNVFSCSVMHEALHNHYTQKSLSLSPGGGGGSGGGGSGGGGSGGGGSDIQMTQSPSSLSASVGDRVTITCKASQNIYIYLNWYQQKPGKAPKLLIYNTNNLQTGVPSRFSGSGSGTDFTLTISSLQPEDFATYYCLQHSSRRTFGGGTKVEIKGGGGSGGGGSGGGGSGGGGSQVQLVESGGGLVQPGGSLKLSCATSGFNFNDYFMNWVRQASGKGLEWVGQIRNKNYNYATYYTESLEGRVTISRDDSKNTAYLQMNSLKTEDTAVYYCTSYYYDGFADYFDYWGQGTTVTVSS
light: ENVLTQSPAIMSVSPGEKVTMTCRASSSVSSSYLHWYQQKSGASPKFWIYSTSNLASGVPARFSGSGSGTSYSLTISSVEAEDAATYYCQHYSGYPLTFGAGTKLELRRTVAAPSVFIFPPSDEQLKSGTASVVCLLNNFYPREAKVQWKVDNALQSGNSQESVTEQDSKDSTYSLSSTLTLSKADYEKHKVYACEVTHQGLSSPVTKSFNRGEC
notes: Ly387 HC (IgG1 mutated Fc)-TM740 scFv VL-VH + Ly387 LC
B6: Ly615 (bispecific antibody, human IgG1, kappa)
heavy: QVQLQQPGAELVKPGASVKLSCKASGYTFTSYWMHWVKQRPGQGLEWIGMIHPNSGGTNYNEKFKGKGTLTVDKSSSTAYMQLSSLTSDDSAVYYCVTSQATWFAYWGQGTLVTVSAASTKGPSVFPLAPSSKSTSGGTAALGCLVKDYFPEPVTVSWNSGALTSGVHTFPAVLQSSGLYSLSSVVTVPSSSLGTQTYICNVNHKPSNTKVDKKVEPKSCDKTHTCPPCPAPELLGPSVFLFPPKPKDTLMISRTPEVTCVVVDVSHEDPEVKFNWYVDGVEVHNAKTKPREEQYNSTYRVVSVLTVLHQDWLNGKEYKCKVSNKALPAPIEKTISKAKGQPREPQVYTLPPSREEMTKNQVSLTCLVKGFYPSDIAVEWESNGQPENNYKTTPPVLDSDGSFFLYSKLTVDKSRWQQGNVFSCSVMHEALHNHYTQKSLSLSPGGGGGSGGGGSGGGGSGGGGSQVQLVESGGGLVQPGGSLKLSCATSGFNFNDYFMNWVRQASGKGLEWVGQIRNKNYNYATYYTESLEGRVTISRDDSKNTAYLQMNSLKTEDTAVYYCTSYYYDGFADYFDYWGQGTTVTVSSGGGGSGGGGSGGGGSGGGGSDIQMTQSPSSLSASVGDRVTITCKASQNIYIYLNWYQQKPGKAPKLLIYNTNNLQTGVPSRFSGSGSGTDFTLTISSLQPEDFATYYCLQHSSRRTFGGGTKVEIK
light: B5 light
notes: Ly387 HC (IgG1 mutated Fc)-TM740 scFv VH-VL + Ly387 LC

Each binder was assayed against T1, human CD40 expressed on CHO cells (human, UniProt P25942 21-277) (assay: FACS, CHO cells).
T1 construct: whole, on cells; also used for the reporter cells over-expressing human CD40; also called cellular CD40; CHO-CD40 cells
T1 sequence (P25942 21-277): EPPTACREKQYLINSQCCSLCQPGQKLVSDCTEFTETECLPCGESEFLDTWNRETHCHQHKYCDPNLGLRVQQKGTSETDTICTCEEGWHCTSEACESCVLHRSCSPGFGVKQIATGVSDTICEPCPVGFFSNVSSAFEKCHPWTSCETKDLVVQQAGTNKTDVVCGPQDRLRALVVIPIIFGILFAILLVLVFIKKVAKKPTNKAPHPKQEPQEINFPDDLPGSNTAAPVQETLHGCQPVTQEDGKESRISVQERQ

Row | Binder | binding result
1 | B1 | binds
2 | B2 | binds
3 | B3 | binds
4 | B4 | binds
5 | B5 | binds
6 | B6 | binds

What follows are binders tested against T2, Human CD40 ECD protein (mouse IgG2a Fc tag) (human, UniProt P25942 21-193) (assay: bridging ELISA, coated B7H3-His, soluble CD40-msFc).
T2 construct: extracellular domain; also called Human CD40-msFc; human recombinant CD40; not shown: mouse IgG2a Fc tag
T2 sequence (P25942 21-193): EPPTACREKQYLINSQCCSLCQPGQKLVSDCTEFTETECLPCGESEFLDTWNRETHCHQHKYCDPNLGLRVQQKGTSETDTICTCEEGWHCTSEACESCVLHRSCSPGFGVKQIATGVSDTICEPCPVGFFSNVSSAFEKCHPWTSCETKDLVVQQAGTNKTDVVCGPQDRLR
Experimental: Anti-B7H3/CD40 bi-specific antibodies were analyzed by ELISA for their simultaneous binding to recombinant human B7H3 and human CD40. Briefly, Human B7H3 CD protein (His-tag) was diluted and coated onto an ELISA plate with a volume of […] by incubation at 4° C. overnight. The next day, the plate was blocked with PBST-BSA buffer, then serially diluted samples of anti-B7H3/CD40 bi-specific antibodies were pipetted into appropriate wells at 50 μL/well, and the plate was incubated for 1 h followed by washing. Human CD40-msFc antibody was added into the plate at 50 μL/well. After 1-hour incubation at room temperature, […] anti-Mouse IgG (H+L) antibody was added into the plate at 100 μL/well. The plate was incubated for 1 hour at room temperature followed by washing. TMB substrate solution was added at 100 p L/well and the color development was stopped by adding 100 uUwell Stop Solution (2N H2SO4). Absorbance at 450 nm and 620 nm was read by Tecan F200 Pro plate reader. GraphPad 7.0, “[Agonist] vs. response—Variable slope (four parameters)” was used to plot the binding data and calculate binding EC50 values.

Row | Binder | binding result
7 | B1 | binds
8 | B2 | binds
9 | B3 | binds
10 | B4 | binds
11 | B5 | binds
12 | B6 | binds
